The target of data set [1] is full-length 6His-LceB (Legionella pneumophila Philadelphia-1) (UniProt Q5ZVT4). Briefly: mass photometry.
The data set “mass photometry” concerns the molecule itself. Briefly: mass photometry.

Several values for one entry are separate records, joined by “and”; a condition that tells them apart may be missing. Identical values can stand only once.

For the molecule “full-length 6His-LceB (from UniProt Q5ZVT4 1-376) (natural protein)”, the stoichiometry N (in general, a count of units in the complex or per binding partner) in data set [1] is 3 and 5.

B1: 6His-LceB (22-366) (domain or fragment)
chain: VGFAAFENGDYTTAYPHLMQAAKEGNEEAMYLLGRMYQYGYGVTTNYEEARNWYQKAADKNNALAQLSLGFMYDTGKGVSQDFTEAFKWYMKAAEQGNPIAQRNIGLMYATGDGVAASDDKAFNWFKKAAEQGYSKAQVNLGYQYMMGKGTPKDVKKAFEWYQKAAEQGDEKGEYSLGLLYTGQEGGIGADDKAAFYWFSQAANHGHVNAQTYLAYYYLKGYGVDADPVKAAYWYQSAAEKGQPEAQAQLGQLLLTGTGVDKDYQQAAYWFGKSAHQGNPIGQAKLGYMYLAGLGVNKSLVKAYAWLKIAAENKNEEAAKQLKSLEAKLTEPEKLEAEKMIKDLG
notes: also called Lpg1356; truncated LceB crystallization construct; not shown: His6, N-terminal, kept
B1: the “stoichiometry N” value in the data set “mass photometry” came to 2.

B2: LceB no HT (22-366) (domain or fragment)
chain: B1 chain
notes: also called LceB no His-tag; digested LceB
For B2, in “mass photometry”, the “stoichiometry N” value worked out at 2.

Values taken from paper PMC10868440, “Structural characterization of the Sel1‐like repeat protein LceB from Legionella pneumophila” (Protein Science : A Publication of the Protein Society, 2024).
